Data taken from paper PMC4971492.

Biological target: Bio-GFP-tagged KIF21A STALK (whole KIF21A stalk domain) (human)
Assay: single-molecule GFP counting (TIRF); HEK293T cell extracts with Bio-GFP-tagged constructs, molecules immobilised on coverslips, initial fluorescence intensities against monomeric GFP and dimeric EB1-GFP; room temperature

Bio-GFP-tagged KIF21A STALK (whole KIF21A stalk domain) (domain or fragment), sequence (Q7Z4S6 whole entry, the tested form may be a part): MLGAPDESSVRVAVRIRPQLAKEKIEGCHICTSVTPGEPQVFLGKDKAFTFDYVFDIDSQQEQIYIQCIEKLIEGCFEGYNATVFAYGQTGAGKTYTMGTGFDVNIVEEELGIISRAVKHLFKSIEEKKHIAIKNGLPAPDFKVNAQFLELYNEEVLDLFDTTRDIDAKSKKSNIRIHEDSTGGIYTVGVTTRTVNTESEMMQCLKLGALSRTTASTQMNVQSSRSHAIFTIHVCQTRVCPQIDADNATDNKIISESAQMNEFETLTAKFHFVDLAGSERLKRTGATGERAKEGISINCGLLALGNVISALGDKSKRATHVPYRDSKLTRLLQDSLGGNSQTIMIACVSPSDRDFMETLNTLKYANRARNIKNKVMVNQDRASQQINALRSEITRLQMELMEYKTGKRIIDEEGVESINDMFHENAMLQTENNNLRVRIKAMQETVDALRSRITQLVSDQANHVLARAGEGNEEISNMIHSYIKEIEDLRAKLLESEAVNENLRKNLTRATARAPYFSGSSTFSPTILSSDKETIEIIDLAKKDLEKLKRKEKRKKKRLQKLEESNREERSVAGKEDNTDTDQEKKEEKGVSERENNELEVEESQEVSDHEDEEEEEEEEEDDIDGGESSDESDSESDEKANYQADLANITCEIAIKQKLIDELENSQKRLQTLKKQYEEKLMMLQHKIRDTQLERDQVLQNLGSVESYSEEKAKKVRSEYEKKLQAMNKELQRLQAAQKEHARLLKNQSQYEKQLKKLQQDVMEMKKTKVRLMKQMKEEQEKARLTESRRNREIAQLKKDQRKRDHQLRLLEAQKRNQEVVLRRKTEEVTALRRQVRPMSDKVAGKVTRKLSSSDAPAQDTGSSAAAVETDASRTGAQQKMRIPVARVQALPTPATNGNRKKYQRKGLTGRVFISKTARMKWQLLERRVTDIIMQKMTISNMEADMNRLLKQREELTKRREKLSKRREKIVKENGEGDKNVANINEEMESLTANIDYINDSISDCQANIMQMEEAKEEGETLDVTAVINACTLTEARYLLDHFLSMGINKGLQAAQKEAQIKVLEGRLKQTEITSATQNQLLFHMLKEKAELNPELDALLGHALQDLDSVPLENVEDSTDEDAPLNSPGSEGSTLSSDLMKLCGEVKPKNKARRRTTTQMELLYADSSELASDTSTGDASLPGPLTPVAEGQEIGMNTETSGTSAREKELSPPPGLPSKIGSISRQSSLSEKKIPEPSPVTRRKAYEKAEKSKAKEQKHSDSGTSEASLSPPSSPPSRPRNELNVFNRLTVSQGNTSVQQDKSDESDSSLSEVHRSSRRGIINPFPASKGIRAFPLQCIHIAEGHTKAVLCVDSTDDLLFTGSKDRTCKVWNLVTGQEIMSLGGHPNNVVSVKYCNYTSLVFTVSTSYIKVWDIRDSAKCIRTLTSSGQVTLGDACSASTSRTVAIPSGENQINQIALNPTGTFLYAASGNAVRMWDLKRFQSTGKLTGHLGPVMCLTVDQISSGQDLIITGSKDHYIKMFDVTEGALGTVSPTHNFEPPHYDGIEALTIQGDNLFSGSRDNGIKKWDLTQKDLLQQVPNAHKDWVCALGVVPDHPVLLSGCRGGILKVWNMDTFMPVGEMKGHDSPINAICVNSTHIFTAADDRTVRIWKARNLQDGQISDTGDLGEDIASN

Which stoichiometry N does the source give for “Bio-GFP-tagged KIF21A STALK (whole KIF21A stalk domain) (domain or fragment)” here?
Its stoichiometry N is 2.
